Experimental findings from article PMC2913146 (Molecular cell, 2010) are described below.

The series deals with the molecule itself. Nature of the series: crystal structure.

B1: PoxA (enzyme)
chain: MSETATWQPSASIPNLLKRAAIMAEIRRFFADRGVLEVETPCMSQATVTDIHLFPFETRFVGPGHSQGINLYLMTSPEYHMKRLLAAGCGPVFQLCRSFRNEEMGRHHNPEFTMLEWYRPHYDMYRLMNEVDDLLQQVLDCQPAESLSYQQAFQRHLEIDPLSADKTQLREAAAKLDLSNIADTEEDRDTLLQLLFTMGVEPHIGKEKPTFIYHFPASQASLAQISTEDHRVAERFEVYYKGIELANGFHELTDAREQQQRFEQDNRKRAARGLPQQPIDQNLLDALAAGLPDCSGVALGVDRLVMLALGAESLADVIAFTVDRA
B1: the binding result is “binds”.
